Results reported in the nanobody polyreactivity screen of Harvey et al. (2022).

Assay: yeast display, Sf9 membrane polyspecificity reagent, FACS + sequencing; frameworks hold sequencing errors
How it was run: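 A synthetic nanobody library was expressed on Saccharomyces cerevisiae BJ5465 by galactose induction for 36–48 hours. The library was stained for 1 hour at 4 °C with 10% biotinylated, detergent-solubilized Sf9 membrane reagent and enriched with streptavidin microbeads before FACS. Low and high (top ~1%) gates were set on anti-HA fluorescence for expression and streptavidin fluorescence for reagent binding, and each polyreactivity label reflects the gate of origin.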

Sequence	polyreactivity (PSR sort gate)
QVQLRESGGGLVQAGGSLRLSCAASGRIFGNYSMGRYRQAPGKEREMVAAISGGGSTYYADSVKGRFTISRDNAKNTVYLQMTSLKPEDTAVYYCADRFLWSVFCRKGGYWGQGTQVTVSS	low polyreactivity
QVQLVASGGGLVQAGGSLLLSCAASGSIFDYNAMGWYRKAPGKERELVAAISSSGGSTYYADSVKGRFTISRDNAKNTVYLQMNSLKPEDTAVYYCNNVSRYILGSGYGYWGQGNQVTVSS	high polyreactivity
QVQLVASGGGLVQAGGSLRFSCAASGRPLSYYAMGWYREAPGKERELVAAISRRGGSTYYADSVKGRFTISRDNAQNTVYIQMNSLKPKDTAVYYCAAETFDYADYIANGSGEYDYWGQGTQVTVSS	high polyreactivity
QVQLVASGGGLVQAGGSLRLSCAASGGTLDYYVMGWYRQAPGKERELVAAISTNGGSTNYADSVKGRFTISRDNAKNTVYLQMNSLKPEDTAVYYCAATSDVYVFLEFDYWGQGTQVTVSS	low polyreactivity
QVQLVASGGGLVQAGGSLRLSSAASGYIFAPNAMGWYRQAPGKERELVAAITFSGGSTSYADSVKGRFTISRDNAKNTVYLQMNSLKPEDTAVYYCNRDDAGIMDYWGLGTQVTVSS	low polyreactivity
QVQLVDSAAGLVQARRSLRLSCAASGRTFPLNVMGWYRLAPGKEREFVAAIRWNGGSTYYADSVKGRFTISRDHAKNTVYLQLNCLIPEDTSVYYCAAQLFRRGRYAGNPMDYWGQGTQVTVSS	high polyreactivity
QVQLVDSAGGLVQSGGSQRLSCAASGSIFHVYPMGCYRQAPGKERELVAAIRRRGGSTYYADSVKGRFTISRDTAKNTVYLQMNSLKPEDTAVYYCAARSVGFYRYDYWGQGTQVTVSS	low polyreactivity
QVQLVDSAVGLVQAGGSLRLSCPASGSIISFYTMGWYRQAPGKERDLVASSTTYADSVKGRFTISRDNAKNTVYLQMNSLKPEVTAVYYCATRHPARRDYWGQGTQVTVSS	low polyreactivity
QVQLVDSGGALVQAGGSLRISCAASGYIFSYKAMGWYRQAPGKERELVAAITSGGSTNYADSVKGRFTISRDNAKNTVYLQMKSLKPEDTAVYYCAAERGDTAYRKYDYWGQGTQVTVSS	low polyreactivity
QVQLVDSGGGLDQAGGSLRLICDASGSIFWWNAMGWYRQAPGKETELVAAINWSTGRTYYADSVKGRFTISRDNAKNTVYLQMNSLKPEDTAVYYCGADVWTPYLISLKSGYDYWGQGTQLTVSS	low polyreactivity
QVQLVDSGGGLDQAGGSLRLSCAASGFTFGDNAMGCYRQAPGKERELVARITGDGSTYYADSVKGRFTISRDNAKNTVYLQMNSLKPEDTAFFYCAADYSPRYTQIEYGYWGQGTQVTVSS	low polyreactivity
QVQLVDSGGGLDQAGGSLRLSCAASGLTFAYNTMGWYRQAPGKERELVADISRSAGSTYYADSVKVRFTISRDNAKNTVFLQMNSLKPDDTAVYYCNAAPYYVLYLLWSSNTYDYWGQGTQVTVSS	high polyreactivity
QVQLVDSGGGLDQAGGSLRLSCAASGRIFGLYAMVWYRTAPGKEKELVAHIDVSDGSTYYADSVKGRFTISLDTAKNTVYLQMNRLKPEDTAVYYCNAEDSSRWYDWYLHDYWGQGTQVTVSS	high polyreactivity
QVQLVDSGGGLGQAGGSLRLSCAASGSIFTTNAMGCYRHAPGKERELVAASSSRGGSTYYADSVKGRFTISRDNAKNTVYLQMNSLKPEDTAVYYCAARYRWPIPGTNYEYWGQGTQVTVSS	low polyreactivity
QVQLVDSGGGLVHAGGSLRLSCAASGSTLIGNAMGWYRQAPWKERELVARISLRGGRTYYADSVKGRFTISRDNAKHTVYLQMNSLKPEDTAVYYCNRGGFSRYYYWGQGTQVTVSS	low polyreactivity
QVQLVDSGGGLVQAEGSLRLSCAPSGIIFGGYAMGWYIPAPGKERELVAAISRSGGSTYYADSVKGRFTISRDNAKNTVYLQMNSLKPEDTAVYYCAADGGAYEYDYWGQGTQVTVSS	high polyreactivity
QVQLVDSGGGLVQAGASLPLSCAASGATFYIYARGWNIQAPGKERELVAANTWSGGRTFYADSVKGRFTMSRDNAKNTDYLQMNSLKPEDTAVYYCANRVRTGSVGNFNYWGQGTQVNVSS	high polyreactivity
QVQLVDSGGGLVQAGGSLGLSCAASGSIVKYYAMGWYRQAPGKEREVVAAISSIGGRPYYADSVKGRFTISRDNAKNTVYLQRNSLKPEDTSVFYCARRFRRTGESEYEYWGQGTQVTVSS	high polyreactivity
QVQLVDSGGGLVQAGGSLLLSCAASGSTINHKDMGLYRQAPGKERELVAAISWSGGSTTYADSVKGRFTISRDNAKNTVYLQMNSLKPEDTAVYYCAADWYYWGFIFDYWGQGTQVTVSS	high polyreactivity
QVQLVDSGGGLVQAGGSLRISCAATGSIFGPNAMGWNRQPPGKERELVAAISRRGGTTYYADSVKGRFTISRDNSKNTFYLQMNSLKPEDTAVYYCATVLYKAYNDYGYWGQGTQVTVSS	high polyreactivity
QVQLVDSGGGLVQAGGSLRLICAASGSISSYYAMVWYRQAPGKERELVAAITSGGRTYYADSVKGRFTISRDNAKNTVYLQMNSLKPEDTAVYYCNARTARNPIKGRASYYWGQGTQVTVSS	high polyreactivity
QVQLVDSGGGLVQAGGSLRLRCAASGSTFGIYAMGWYRQAPGKERELVAAISWRGGRTYYADSVKGRFTITRDNAKNNVYFQMNSLKPEDTAVYYCAADYRYLWEGYDYWGQGTQVTVSS	low polyreactivity

Sequence	polyreactivity (PSR sort gate)
QVQLVDSGGGLVQAGGSLRLRCAASGSTFRRYAMGWYRQAPGKERELVAAISNRDGSTYYADSVKGRFTISRDNAKNTVYLQMNSLKADDTAVYYCNAYGYGDYSFLKYRFEYDYWGQGTQVTVSS	low polyreactivity
QVQLVDSGGGLVQAGGSLRLRCAASGSTYHYAMAGYRQAPGKERELVASITWRGDTTYYADSVKARFTISRDNAMNTVYFHMNSLKPEDSAVYYCAAYVRRCFAWGQGTQVTVSS	high polyreactivity
QVQLVDSGGGLVQAGGSLRLSCAASASTFEYYTMGWYRHAPGKERQLVASIRSSGTSTYYADCVKGRFTISRDNAKNTVYLQMNSLKPEDTAVSYWAATVLSIYVSSYGFWGQGTQVTVSS	high polyreactivity
QVQLVDSGGGLVQAGGSLRLSCAASGFIFDVYAMGGYRQAPGKERQLVAAISVSSTNYADSVKGRFTISRDNAKNTVYLQMNSLKPEDTAVSYCAADTYTYFLASYLYGQYDYWGQGTQVTVSW	low polyreactivity
QVQLVDSGGGLVQAGGSLRLSCAASGFIFIRNARGWYRQAPGKESQLVAAIRYRGGNTYYADSVKGRFTISRDNAKNTVYLQMNSLKPEDTAVYYCNAAGSYYTRSDSGYWGQGTQVTVSS	high polyreactivity
QVQLVDSGGGLVQAGGSLRLSCAASGFIFPVYTMGWYRQAPGKERELVAAITQIGGSTQYADSVKGRFTISRDNAKNTVYLQMNSLKPEDTAVYYCAVDYDSYWYGTYVNEYVYWGQGTQVTVSS	low polyreactivity
QVQLVDSGGGLVQAGGSLRLSCAASGFIFTDYAMGLYRQAPGQEREFVAAIDWSGGNTYYADSVTGRFTISRDNAKNTVYLQMNSLKPEDTAVFYCAASGSAREYVYWGQGTQVTVSS	low polyreactivity
QVQLVDSGGGLVQAGGSLRLSCAASGFIFWYYAMGWYRQEPRKERELVAAITSGGNTNYADSVKGRFTISRDNAKNTVYLQMNSLKPEDTAVYYCATGRASGREHDSWGQGTQVTVSS	low polyreactivity
QVQLVDSGGGLVQAGGSLRLSCAASGFIFYKYAMGWYRQATGKERELVAAISKRGGSTYYADSVKGRFTISRDNAKNTVYLQMNSLKPEYTAVYDCATDGGYSDTVRYVASDYWGQGTQVTVSS	high polyreactivity
QVQLVDSGGGLVQAGGSLRLSCAASGFILYFNAMGWYRQAHGKERELVAAISRGDGSTYADSVKGRFTISRDNAKNTVYLQMNSLKAQDTAVYYCNAGLGVVVTHYVGYGYDSWGQGTQVTVSS	low polyreactivity
QVQLVDSGGGLVQAGGSLRLSCAASGFNFASYALGWYRPAPGKERELVAAISQSGGRTYYADSVKGRFTISRDNANNTVYLQMNSLKPEDTAVYYCAAPSYRYIYYSPGTGLGYWGQGTQVTVSS	high polyreactivity
QVQLVDSGGGLVQAGGSLRLSCAASGFTFTPNAMGWYRQAPGTERELVAAISRRGGSTYYADSVKGRFTISRDNAKNTVYLQMNSLKPEDTAVYYCAASSSGRGGYWGQGTQVTVSS	high polyreactivity
QVQLVDSGGGLVQAGGSLRLSCAASGFTIPYYAMGWYRQAPGKERELVAAISSGGRTNYADSVKGRFTISRDNAKNTVYLPMNSLKPEDTAVYYCATRSYVFAWEFYYWGQGTQVTVSS	high polyreactivity
QVQLVDSGGGLVQAGGSLRLSCAASGGILKCYYMGRYRQATGKEMEFVSPITWSAGSTYYADSVKGRFTISRDNAKNTVYLQMNSLKPEDTAVHYCNVDWYPRGPHTVVFYDVSPYDYWGQGTQVTVSS	high polyreactivity
QVQLVDSGGGLVQAGGSLRLSCAASGIILYPYAMGWYRQAPGKERELVAAISWSGGSTYYADSVKGRFTISRDNAKNTVYLQMNSLKPEDTAVYYCAARPRRRYYGYDSWGQGTQVTVSS	high polyreactivity
QVQLVDSGGGLVQAGGSLRLSCAASGITFNSYVMGLYRQAPGKERELVAVISRGGGITYYADSVKGRFTISRDNAKNTVYLQMNSLKPEDTAVSYCAADHTHGYVLYYNDNYWGQGTQVTVSS	high polyreactivity
QVQLVDSGGGLVQAGGSLRLSCAASGITFRTYAMGWYRQEPGKERELVAAISGSSTSTYYADSVKGRFTISRDNAKNTVYLQMNSLKPEDTAVYYCAAGYRVSVYRYYYWGQGTQVTVSS	high polyreactivity
QVQLVDSGGGLVQAGGSLRLSCAASGITFYYYAMGRYIQAPGKERELVAAISWSGGSTYYADSVKGRFTISRDNAKNTVYLPMNSLIPEDTAVYYCAATPYQYHDGGYWGQGTQVTVSS	high polyreactivity
QVQLVDSGGGLVQAGGSLRLSCAASGITFYYYAMGWYRQAAGKERELVAAISSRGGSTYYADSVKGRFTISRDNAKNTVYLQRNSLKPEDTAVYYCAALYGVSEEDDYWGQATQVTVSS	high polyreactivity
QVQLVDSGGGLVQAGGSLRLSCAASGITFYYYAMGWYRQAPGKERELVAAISSRGGSTYYADSVKGRFRISRDNAKNTVYLQMNSLNPEDTAVYYCAAGRVGAWTFDYWGEGTQVTVSS	high polyreactivity
QVQLVDSGGGLVQAGGSLRLSCAASGITIEYNDMGWYRQAPGTERELVAAISLSSGSTYYADSVKGRFTISRDNAKNTVYLQMNSLKPEDTAVYYCNADTIIYEGGYWGQGTQVTVSS	low polyreactivity
